These results are taken from patent CN106008708A.

In the assay the target is 重组HBx蛋白 (B基因型HBx, GenBank NO.AF100309.1, 大肠杆菌表达) (乙型肝炎病毒(HBV) B基因型). Nature of the assay: ELISA, serial dilution of purified antibody on plates coated with immunogen HBx; positive threshold 0.3. For orientation: ELISA stands for enzyme-linked immunosorbent assay.

B1: HBx单克隆抗体KY01 (antibody, mouse IgG1, V domains shown)
VH: EVQLQQSGPELVRPGASVKMSCKASGYTFTSYWMHWLKQRPGQGLEWIGMIDPSNSETRLNQKFKDKATLNVDKSSNTAYMQLSSLTSEDSAVYYCAYDGAYWGQGTLVTVSE
VL: DIVLTQSPASLAVSLGQRATISCRASESVDSYGNSFIHWYQQKPGQPPKLLIYRASNLESGIPARFSGSGSRTDFTLTINPVEADDVATYFCQQSNEDPRTFGGGTKLEIKR
Turning to B1, the 抗体滴度(效价) (dilution factor (1:n)) came out at 2.5e+06.
